Measured values published in patent US11279747 (UNIVERSITAT ZURICH, dated 2022).

Assays:
mouse Pirb [1] = molecular target: T1, mouse Pirb (mouse, UniProt P97484 25-642, limits assumed); experiment: ELISA, receptor coated at 10 µg/mL, HLA2-Fc at 10 µg/mL, anti-human Fc-HRP
T1 construct: Bought protein coated on the ELISA plate; also called PirB (murine homologue to LILRB)
T1 sequence (looked up): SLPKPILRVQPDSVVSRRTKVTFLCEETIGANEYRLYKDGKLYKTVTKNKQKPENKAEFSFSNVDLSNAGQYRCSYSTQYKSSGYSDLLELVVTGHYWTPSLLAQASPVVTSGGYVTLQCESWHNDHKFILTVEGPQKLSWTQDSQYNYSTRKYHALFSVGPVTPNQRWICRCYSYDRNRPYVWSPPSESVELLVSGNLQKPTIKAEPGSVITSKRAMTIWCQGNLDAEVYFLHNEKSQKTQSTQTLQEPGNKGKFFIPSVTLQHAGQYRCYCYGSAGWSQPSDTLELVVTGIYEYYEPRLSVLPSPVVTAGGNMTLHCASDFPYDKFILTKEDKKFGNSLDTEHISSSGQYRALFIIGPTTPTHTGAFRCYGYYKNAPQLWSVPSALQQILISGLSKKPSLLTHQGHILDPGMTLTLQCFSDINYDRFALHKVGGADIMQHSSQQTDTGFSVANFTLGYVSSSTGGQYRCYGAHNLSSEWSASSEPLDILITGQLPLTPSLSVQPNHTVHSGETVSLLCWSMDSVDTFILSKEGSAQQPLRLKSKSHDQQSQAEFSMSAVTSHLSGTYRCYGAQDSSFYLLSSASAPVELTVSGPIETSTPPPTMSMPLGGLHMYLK
Description: (§1) Competition ELISA assays were performed using Maxisorp (Nunc, Switzerland) 96 well plates coated with 10 μg/mL of selected leukocyte receptors (human KIR3DL1, human KIR3DL2, human KIR3DL3, human LILRB1, human LILRB2, human PTPRJ and mouse Pirb) purchased from Creative Biomart. Receptors were incubated for ON 4° C., blocked with 5% milk powder-TBS 2 hrs. HLA_2-Fc selected constructs (A25_2-Fc, A30_2-Fc, B2705_2-Fc, B53_2-Fc, B57_2-Fc, B58_2-Fc, C08_2-F, and C12_2-Fc) and their controls (A25-β2m-Fc, A30-β2m-Fc, B2705-β2m-Fc, B53-β2m-Fc, B57-β2m-Fc, B58-β2m-Fc, C08-β2m-Fc and C12-β2m-Fc) and isotype IgG4 were added at 10 μg/mL for 2 hrs RT. HRP-conjugated antibodies against human Fc were used as detectors.

human KIR3DL1 [2] = molecular target: T2, human KIR3DL1 (human, UniProt P43629 22-340, limits assumed); experiment: as above
T2 construct: Bought protein coated on the ELISA plate; also called hu KIR3DL1
Description: as §1

human KIR3DL3 [3] = molecular target: T3, human KIR3DL3 (human, UniProt Q8N743 26-322, limits assumed); experiment: as above
T3 construct: Bought protein coated on the ELISA plate; also called hu KIR3DL3
Description: as §1

human LILRB1 [4] = molecular target: T4, human LILRB1 (human, UniProt Q8NHL6 24-458, limits assumed); experiment: as above
T4 construct: Bought protein coated on the ELISA plate
Description: as §1

human KIR3DL2 [5] = molecular target: T5, human KIR3DL2 (human, UniProt P43630 22-340, limits assumed); experiment: as above
T5 construct: Bought protein coated on the ELISA plate; also called hu KIR3DL2
Description: as §1

human LILRB2 [6] = molecular target: T6, human LILRB2 (human, UniProt Q8N423 22-458, limits assumed); experiment: as above
T6 construct: Bought protein coated on the ELISA plate
Description: as §1

human KIR3DL1 [7] = molecular target: T2, human KIR3DL1; experiment: ELISA (FIG. 5A)
Description: (§2) A) hu KIR3DL1, B) hu KIR3DL2, and C) hu KIR3DL3 are expressed in NK cells and subpopulations of T cells. D) LILRB1, and E) LILRB2 expressed mostly in myeloid cells, F) PirB (murine homologue to LILRB) and G) PTPRJ (on leukocytes is preferentially expressed in MDSCs cells and activated T cells) Figure 5:
as §1

human KIR3DL2 [8] = molecular target: T5, human KIR3DL2; experiment: ELISA (FIG. 5B)
Description: as §2, §1

human LILRB1 [9] = molecular target: T4, human LILRB1; experiment: ELISA (FIG. 5D)
Description: as §2, §1

human LILRB2 [10] = molecular target: T6, human LILRB2; experiment: ELISA (FIG. 5E)
Description: as §2, §1

mouse Pirb [11] = molecular target: T1, mouse Pirb; experiment: ELISA (FIG. 5F)
Description: as §2, §1

human KIR3DL3 [12] = molecular target: T3, human KIR3DL3; experiment: ELISA (FIG. 5C)
Description: as §2, §1

Measured: binding result

T4 sequence (Q8NHL6 24-458 limits assumed): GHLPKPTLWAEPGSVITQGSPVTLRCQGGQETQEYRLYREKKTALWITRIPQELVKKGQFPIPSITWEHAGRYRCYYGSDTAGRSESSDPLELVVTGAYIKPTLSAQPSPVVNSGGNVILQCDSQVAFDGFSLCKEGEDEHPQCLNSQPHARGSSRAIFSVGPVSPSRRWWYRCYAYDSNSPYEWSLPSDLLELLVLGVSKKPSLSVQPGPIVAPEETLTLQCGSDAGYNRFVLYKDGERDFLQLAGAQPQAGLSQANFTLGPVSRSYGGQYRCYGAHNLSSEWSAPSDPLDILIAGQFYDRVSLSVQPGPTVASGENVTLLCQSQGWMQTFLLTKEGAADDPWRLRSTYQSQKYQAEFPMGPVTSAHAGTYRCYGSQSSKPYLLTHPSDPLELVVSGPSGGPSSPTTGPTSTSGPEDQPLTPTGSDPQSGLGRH
T6 sequence (Q8N423 22-458 limits assumed): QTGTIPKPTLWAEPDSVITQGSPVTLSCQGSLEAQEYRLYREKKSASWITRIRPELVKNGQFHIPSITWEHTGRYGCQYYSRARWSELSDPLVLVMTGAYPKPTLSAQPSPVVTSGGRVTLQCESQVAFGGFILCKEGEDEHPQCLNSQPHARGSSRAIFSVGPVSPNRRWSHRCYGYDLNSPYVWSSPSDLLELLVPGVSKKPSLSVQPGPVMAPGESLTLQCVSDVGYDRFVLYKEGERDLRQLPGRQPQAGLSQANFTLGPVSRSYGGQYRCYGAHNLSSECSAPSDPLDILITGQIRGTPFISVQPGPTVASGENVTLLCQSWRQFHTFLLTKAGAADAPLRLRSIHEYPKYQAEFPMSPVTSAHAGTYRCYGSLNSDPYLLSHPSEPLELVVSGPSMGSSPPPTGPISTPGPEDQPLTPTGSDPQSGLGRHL
T2 sequence (P43629 22-340 limits assumed): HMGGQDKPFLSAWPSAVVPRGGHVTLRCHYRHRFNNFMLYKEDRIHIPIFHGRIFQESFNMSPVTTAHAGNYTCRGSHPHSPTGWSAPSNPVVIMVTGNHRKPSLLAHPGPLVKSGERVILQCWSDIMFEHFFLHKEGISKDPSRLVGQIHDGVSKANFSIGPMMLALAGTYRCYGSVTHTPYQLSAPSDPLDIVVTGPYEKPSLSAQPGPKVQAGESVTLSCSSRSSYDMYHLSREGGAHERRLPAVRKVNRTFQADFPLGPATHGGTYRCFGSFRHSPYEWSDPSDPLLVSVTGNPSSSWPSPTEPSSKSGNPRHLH
T3 sequence (Q8N743 26-322 limits assumed): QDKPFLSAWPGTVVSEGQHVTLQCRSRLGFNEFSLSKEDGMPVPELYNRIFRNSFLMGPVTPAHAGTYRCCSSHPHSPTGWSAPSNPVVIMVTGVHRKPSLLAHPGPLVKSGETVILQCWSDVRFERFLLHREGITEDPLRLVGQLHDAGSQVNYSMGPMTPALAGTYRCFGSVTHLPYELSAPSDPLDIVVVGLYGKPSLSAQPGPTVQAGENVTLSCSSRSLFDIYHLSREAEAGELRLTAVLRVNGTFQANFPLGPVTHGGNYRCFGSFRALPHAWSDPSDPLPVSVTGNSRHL

B1: B582-Fc (Fc fusion)
chain: GSHSMRYFYTAMSRPGRGEPRFIAVGYVDDTQFVRFDSDAASPRTEPRAPWIEQEGPEYWDGETRNMKASAQTYRENLRIALRYYNQSEAGSHIIQRMYGCDLGPDGRLLRGHDQSAYDGKDYIALNEDLSSWTAADTAAQITQRKWEAARVAEQLRAYLEGLCVEWLRRYLENGKETLQRADPPKTHVTHHPVSDHEATLRCWALGFYPAEITLTWQRDGEDQTQDTELVETRPAGDRTFQKWAAVVVPSGEEQRYTCHVQHEGLPKPLTLRW
notes: also called HLA2-Fc; HLA-B58 open conformer; not shown: human IgG4 Fc (human IgG4-Fc vector, InvivoGen)
binds: mouse Pirb [1] | human KIR3DL1 [2] | human KIR3DL3 [3] | human LILRB1 [4] | human KIR3DL2 [5] | human LILRB2 [6]

B2: B532-Fc (Fc fusion)
chain: GSHSMRYFYTAMSRPGRGEPRFIAVGYVDDTQFVRFDSDAASPRTEPRAPWIEQEGPEYWDRNTQIFKTNTQTYRENLRIALRYYNQSEAGSHIIQRMYGCDLGPDGRLLRGHDQSAYDGKDYIALNEDLSSWTAADTAAQITQRKWEAARVAEQLRAYLEGLCVEWLRRYLENGKETLQRADPPKTHVTHHPVSDHEATLRCWALGFYPAEITLTWQRDGEDQTQDTELVETRPAGDRTFQKWAAVVVPSGEEQRYTCHVQHEGLPKPLTLRW
notes: also called HLA2-Fc; HLA-B53 open conformer; not shown: human IgG4 Fc (human IgG4-Fc vector, InvivoGen)
binds: mouse Pirb [1] | human KIR3DL1 [2] | human KIR3DL3 [3] | human LILRB1 [4] | human KIR3DL2 [5] | human LILRB2 [6]

B3: B572-Fc (Fc fusion)
chain: GSHSMRYFYTAMSRPGRGEPRFIAVGYVDDTQFVRFDSDAASPRMAPRAPWIEQEGPEYWDGETRNMKASAQTYRENLRIALRYYNQSEAGSHIIQVMYGCDVGPDGRLLRGHDQSAYDGKDYIALNEDLSSWTAADTAAQITQRKWEAARVAEQLRAYLEGLCVEWLRRYLENGKETLQRADPPKTHVTHHPISDHEATLRCWALGFYPAEITLTWQRDGEDQTQDTELVETRPAGDRTFQKWAAVVVPSGEEQRYTCHVQHEGLPKPLTLRW
notes: also called HLA2-Fc; HLA-B57 open conformer; not shown: human IgG4 Fc (human IgG4-Fc vector, InvivoGen)
binds: mouse Pirb [1] | human KIR3DL1 [2] | human KIR3DL3 [3] | human LILRB1 [4] | human KIR3DL2 [5] | human LILRB2 [6]

B4: A252-Fc (Fc fusion)
chain: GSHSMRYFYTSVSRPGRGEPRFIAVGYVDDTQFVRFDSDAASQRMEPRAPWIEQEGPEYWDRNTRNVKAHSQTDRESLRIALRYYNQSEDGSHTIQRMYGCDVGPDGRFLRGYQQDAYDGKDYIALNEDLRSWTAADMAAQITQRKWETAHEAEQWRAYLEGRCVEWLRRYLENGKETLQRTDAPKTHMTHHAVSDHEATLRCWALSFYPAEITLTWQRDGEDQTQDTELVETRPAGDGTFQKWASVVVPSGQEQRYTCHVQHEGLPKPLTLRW
notes: also called HLA2-Fc; HLA-A25 open conformer; not shown: human IgG4 Fc (human IgG4-Fc vector, InvivoGen)
binds: mouse Pirb [1] | human KIR3DL1 [2] | human KIR3DL3 [3] | human LILRB1 [4] | human KIR3DL2 [5] | human LILRB2 [6]

B5: B272-Fc (Fc fusion)
chain: GSHSMRYFHTSVSRPGRGEPRFITVGYVDDTLFVRFDSDAASPREEPRAPWIEQEGPEYWDRETQICKAKAQTDREDLRTLLRYYNQSEAGSHTLQNMYGCDVGPDGRLLRGYHQDAYDGKDYIALNEDLSSWTAADTAAQITQRKWEAARVAEQLRAYLEGECVEWLRRYLENGKETLQRADPPKTHVTHHPISDHEATLRCWALGFYPAEITLTWQRDGEDQTQDTELVETRPAGDRTFQKWAAVVVPSGEEQRYTCHVQHEGLPKPLTLRW
notes: also called B27052-Fc; HLA2-Fc; not shown: human IgG4 Fc (human IgG4-Fc vector, InvivoGen)
binds: mouse Pirb [1] | human KIR3DL1 [2] | human KIR3DL3 [3] | human LILRB1 [4] | human KIR3DL2 [5] | human LILRB2 [6]

B6: A302-Fc (Fc fusion)
chain: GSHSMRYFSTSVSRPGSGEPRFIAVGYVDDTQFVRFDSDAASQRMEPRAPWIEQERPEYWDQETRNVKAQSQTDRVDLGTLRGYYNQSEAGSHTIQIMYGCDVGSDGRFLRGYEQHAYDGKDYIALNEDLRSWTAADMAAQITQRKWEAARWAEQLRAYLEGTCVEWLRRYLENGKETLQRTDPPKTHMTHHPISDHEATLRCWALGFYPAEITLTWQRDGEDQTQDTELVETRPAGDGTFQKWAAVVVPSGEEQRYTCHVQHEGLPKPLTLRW
notes: also called HLA2-Fc; HLA-A30 open conformer; not shown: human IgG4 Fc (human IgG4-Fc vector, InvivoGen)
binds: mouse Pirb [1] | human KIR3DL3 [3] | human LILRB1 [4] | human LILRB2 [6] | human KIR3DL1 [7] | human KIR3DL2 [8]

B7: C082-Fc (Fc fusion)
chain: CSHSMRYFYTAVSRPGRGEPRFIAVGYVDDTQFVQFDSDAASPRGEPRAPWVEQEGPEYWDRETQKYKRQAQTDRVSLRNLRGYYNQSEAGSHTLQRMYGCDLGPDGRLLRGYNQFAYDGKDYIALNEDLRSWTAADTAAQITQRKWEAARTAEQLRAYLEGTCVEWLRRYLENGKKTLQRAEHPKTHVTHHPVSDHEATLRCWALGFYPAEITLTWQRDGEDQTQDTELVETRPAGDGTFQKWAAVVVPSGEEQRYTCHVQHEGLPEPLTLRW
notes: also called HLA2-Fc; HLA-C08 open conformer; not shown: human IgG4 Fc (human IgG4-Fc vector, InvivoGen)
binds: human LILRB1 [9] | human KIR3DL1 [7] | human LILRB2 [10] | mouse Pirb [11] | human KIR3DL2 [8] | human KIR3DL3 [12]

B8: C122-Fc (Fc fusion)
chain: CSHSMRYFYTAVSRPGRGEPRFIAVGYVDDTQFVRFDSDAASPRGEPRAPWVEQEGPEYWDRETQKYKRQAQADRVSLRNLRGYYNQSEAGSHTLQRMYGCDLGPDGRLLRGYDQSAYDGKDYIALNEDLRSWTAADTAAQITQRKWEAAREAEQWRAYLEGTCVEWLRRYLENGKETLQRAEHPKTHVTHHPVSDHEATLRCWALGFYPAEITLTWQRDGEDQTQDTELVETRPAGDGTFQKWAAVVVPSGEEQRYTCHVQHEGLPEPLTLRW
notes: also called HLA2-Fc; HLA-C12 open conformer; not shown: human IgG4 Fc (human IgG4-Fc vector, InvivoGen)
binds: human LILRB1 [9] | human KIR3DL1 [7] | human LILRB2 [10] | mouse Pirb [11] | human KIR3DL2 [8] | human KIR3DL3 [12]
